From US20230111102A1 (published 2023)

Target: HEWL (lysozyme, derived from egg albumen, FUJIFILM Wako Pure Chemical Corporation) (UniProt P00698 19-147)
Assay: SPR (Biacore)

Chain of HEWL (lysozyme, derived from egg albumen, FUJIFILM Wako Pure Chemical Corporation) (P00698 19-147): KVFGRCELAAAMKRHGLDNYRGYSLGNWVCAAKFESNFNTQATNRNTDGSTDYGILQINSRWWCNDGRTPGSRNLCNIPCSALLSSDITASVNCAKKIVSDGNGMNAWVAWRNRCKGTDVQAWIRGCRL

Kd: 18 nM
B1: 1ZVH (VHH, SEQ ID NO: 38) produced by Bacillus subtilis Dpr9ΔsigF (VHH)
VHH: QVQLVESGGGLVQPGGSLRLSCAASGFTFSNDAMTWVRQAPGKALEWVSSITLLGGGIPYYSDTVKGRFTISRDNTKNMLYLQMNSLKPEDTAVYYCAKGFKSDYPRGQGTQVTVSS
